Experiment [1] has as its target HALO-FhM28B (E413M) (Fasciola hepatica). The experiment is described as follows: SEC; final purification step on a Superose 6 column, 20 mM MOPS, 150 mM NaCl, pH 7.4; elution peak compared with the expected dimeric mass.
Experiment [2] concerns the target HALO-FhM28B (Fasciola hepatica M28B metalloprotease, wild type, with N-terminal His-Strep-HALO tag) (Fasciola hepatica). The description is as above.

Usually stoichiometry N stands for a count of units in the complex or per binding partner.

In experiment [1], HALO-FhM28B (E413M) (enzyme) displayed a stoichiometry N of 2. “HALO-FhM28B (Fasciola hepatica M28B metalloprotease, wild type, with N-terminal His-Strep-HALO tag) (enzyme)” gave a stoichiometry N in experiment [2] of 2.

The record behind these values is publication PMC9768917.
